Source: patent publication US20030096355A1 (published 2003)

How the values were obtained:
[1] = molecular target: T1, murine TNFα (amino acids 82-233, Genbank accession no. CAA68530) (murine, UniProt P06804 82-233); assay: SPR, Biacore 2000, 25° C; ymkz5-receptor immobilized on CM5 chip, ligand injected
T1 construct: range 82-233; Expressed in E. coli
T1 sequence (looked up): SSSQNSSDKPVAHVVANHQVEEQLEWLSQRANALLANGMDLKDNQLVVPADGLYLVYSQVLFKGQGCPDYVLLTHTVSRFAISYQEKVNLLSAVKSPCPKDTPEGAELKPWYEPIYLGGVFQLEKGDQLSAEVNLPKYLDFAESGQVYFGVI
Description: (§1) Binding studies were performed to determine if various TNF ligand family members are ligands for the ymkz5-receptor. The only TNF ligand which bound to the ymkz5-receptor was murine TRAIL. The binding studies, based on surface plasmon resonance, were carried out with the automated, high throughput Biacore 2000 system at 25° C. according to the manufacturer's instructions (Biacore, Uppsula, Sweden) as follows:
(§2) The receptor was immobilized on a CM5 research grade amine coupling chip (Biacore) by placing 40 μg/ml of recombinant ymkz5-receptor diluted in HEPES buffered saline (HBS-P; Biacore) at pH 4.5 on the chip. The ligands were diluted in HSP-B buffer containing 10 μg/ml BSA and 4 mg/ml dextran to block nonspecific binding sites. The ligand samples were injected over the receptors at concentrations ranging from 2 nM to 100 nM. The chips were regenerated between ligand injections by washing 2 times for 3 minutes in 25 mM CAPS, 1 M NaCl pH 10.5.
(§3) The TNF ligands tested were: human flag TRAIL (amino acids 95-281, Genbank accession no. AAC50332), murine flag TRAIL (amino acids 99-291, Genbank accession no. NP 033451), murine Fc TRAIL, human OPGL ligand (amino acids 159-318), murine OPGL ligand (amino acids 159-316), human TNFα (amino acids 82-233, Genbank accession no. CAA26669), and murine TNFα (amino acids 82-233, Genbank accession no. CAA68530). The extracellular and […] portions of the ligands were recombinantly expressed in E.coli. Specifically, the denoted amino acids for each ligand indicate the portion of the ligand expressed recombinantly. Additionally, commercially available human Fas ligand (Alexis Biochemicals, San Diego, Calif.) was also tested.. Human DR5Fc, a known TRAIL receptor, was used as a control. Results of the assay were determined by detecting the change in mass on the chip as measured by changes in […] on the chip as indicated as resonance units.

[2] = molecular target: T2, human Fas ligand (Alexis Biochemicals) (human, UniProt P48023 103-281, limits assumed); assay: as above
T2 construct: Bought; construct not described
T2 sequence (looked up): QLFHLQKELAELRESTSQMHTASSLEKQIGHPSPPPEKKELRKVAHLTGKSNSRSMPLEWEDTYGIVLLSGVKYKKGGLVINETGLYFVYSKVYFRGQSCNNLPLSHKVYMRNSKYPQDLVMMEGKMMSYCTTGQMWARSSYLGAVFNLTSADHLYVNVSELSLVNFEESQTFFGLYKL
Description: as §1, §2, §3

[3] = molecular target: T3, human flag TRAIL (amino acids 95-281, Genbank accession no. AAC50332) (human, UniProt P50591 95-281); assay: as above
T3 construct: range 95-281; Expressed in E. coli; not shown: flag tag
Description: as §1, §2, §3

[4] = molecular target: T4, human OPGL ligand (amino acids 159-318) (human, UniProt O14788 159-317); assay: as above
T4 construct: range 159-318; Expressed in E. coli; The printed range may run past the end of the UniProt entry
T4 sequence (looked up): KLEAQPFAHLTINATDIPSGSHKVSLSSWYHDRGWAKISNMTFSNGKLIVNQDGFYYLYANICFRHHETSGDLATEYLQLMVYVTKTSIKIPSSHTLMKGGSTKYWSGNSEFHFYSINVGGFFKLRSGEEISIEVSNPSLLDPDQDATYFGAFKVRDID
Description: as §1, §2, §3

[5] = molecular target: T5, murine OPGL ligand (amino acids 159-316) (murine, UniProt O35235 159-316); assay: as above
T5 construct: range 159-316; Expressed in E. coli
T5 sequence (looked up): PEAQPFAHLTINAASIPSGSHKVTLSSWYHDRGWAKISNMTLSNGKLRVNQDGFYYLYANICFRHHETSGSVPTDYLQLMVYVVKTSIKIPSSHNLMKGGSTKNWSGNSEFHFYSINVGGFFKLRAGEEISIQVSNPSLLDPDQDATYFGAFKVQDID
Description: as §1, §2, §3

[6] = molecular target: T6, human TNFα (amino acids 82-233, Genbank accession no. CAA26669) (human, UniProt P01375 82-233); assay: as above
T6 construct: range 82-233; Expressed in E. coli
Description: as §1, §2, §3

active murine TRAIL = molecular target: T7, active murine TRAIL (murine, UniProt P50592 99-291); assay: SPR, Biacore 2000, 25° C; ymkz5-receptor amine-coupled on CM5 chip, ligand injected at 2 nM to 100 nM; receptor on the chip; active (bioactive) murine TRAIL as ligand
T7 construct: The result is told only for 'active murine TRAIL which was bioactive in cell culture assays'; The construct (flag-tagged 99-291 or Fc fusion) is not tied to the KD; also called murine flag TRAIL; murine Fc TRAIL
T7 sequence (looked up): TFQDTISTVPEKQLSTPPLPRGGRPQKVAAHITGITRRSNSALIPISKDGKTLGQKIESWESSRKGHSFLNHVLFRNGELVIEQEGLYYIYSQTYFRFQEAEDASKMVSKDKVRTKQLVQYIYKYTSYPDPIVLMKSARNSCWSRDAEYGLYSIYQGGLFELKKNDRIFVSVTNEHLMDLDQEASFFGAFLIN
Description: as §1
The receptor was immobilized on a CM5 research grade amine coupling chip (Biacore) by placing 40 μg/ml of recombinant ymkz5-receptor diluted in HEPES buffered saline (HBS-P; Biacore) at pH 4.5 on the chip. The ligands were diluted in HSP-B buffer containing 10 μg/ml BSA and 4 mg/ml dextran to block nonspecific binding sites. […]
The TNF ligands tested were: human flag TRAIL (amino acids 95-281, Genbank accession no. AAC50332), murine flag TRAIL (amino acids 99-291, Genbank accession no. NP 033451), murine Fc TRAIL, human OPGL ligand (amino acids 159-318), murine OPGL ligand (amino acids 159-316), human TNFα (amino acids 82-233, Genbank accession no. CAA26669), and murine TNFα (amino acids 82-233, Genbank accession no. CAA68530). […] Results of the assay were determined by detecting the change in mass on the chip as measured by changes in […] on the chip as indicated as resonance units.

T3 sequence (P50591 95-281 limits assumed): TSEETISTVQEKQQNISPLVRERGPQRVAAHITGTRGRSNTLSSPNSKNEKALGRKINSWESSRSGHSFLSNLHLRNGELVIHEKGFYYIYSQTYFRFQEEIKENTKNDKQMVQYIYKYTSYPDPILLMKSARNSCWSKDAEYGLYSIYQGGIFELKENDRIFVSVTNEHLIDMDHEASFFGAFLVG
T6 sequence (P01375 82-233 limits assumed): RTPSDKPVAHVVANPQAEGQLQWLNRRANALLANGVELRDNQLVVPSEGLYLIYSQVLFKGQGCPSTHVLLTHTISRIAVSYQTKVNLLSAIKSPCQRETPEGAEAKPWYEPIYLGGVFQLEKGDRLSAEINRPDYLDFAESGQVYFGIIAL

B1: recombinant ymkz5-receptor (receptor)
chain: MPESYSFNCPDGEYQSNDVCCKTCPSGTFVKAPCKIPHTQGQCEKCHPGTFTGKDNGLHDCELCSTCDKDQNMVADCSATSDRKCECQIGLYYYDPKFPESCRPCTKCPQGIPVLQECNSTANTVC
- binding result [1]: no binding
- binding result [2]: no binding
- binding result [3]: no binding
- binding result [4]: no binding
- binding result [5]: no binding
- binding result [6]: no binding
- Kd (active murine TRAIL): 20.8 nM
